Assay results taken from PMC3229523, “Identification of Lactoferricin B Intracellular Targets Using an Escherichia coli Proteome Chip” (PLoS ONE, 2011).
Ends that are not written are not given here. * marks the point of attachment. Biotin = O=C1N[C@H]2[C@H](CS[C@H]2CCCCC(=O)*)N1

Assays:
Assay in all cases: peptide or protein array; E. coli proteome chip: purified His-tagged proteins printed in duplicate on Fullmoon slides, blocked with 1% BSA; 10 nM N-terminal biotinylated LfcinB with 1% BSA, room temperature, 1 h; detected with DyLight 649-labeled streptavidin, ratio to DyLight 549-labeled anti-His antibody; ProCAT normalisation, local cut-off; triplicate chips
Settings in all cases: both partners purified
RplN = RplN (E. coli K-12, UniProt P0ADY3 1-123)
Sun = target: T1, Sun (E. coli K-12, UniProt P36929 1-429)
T1 construct: Sun, E. coli K-12
T1 sequence (looked up): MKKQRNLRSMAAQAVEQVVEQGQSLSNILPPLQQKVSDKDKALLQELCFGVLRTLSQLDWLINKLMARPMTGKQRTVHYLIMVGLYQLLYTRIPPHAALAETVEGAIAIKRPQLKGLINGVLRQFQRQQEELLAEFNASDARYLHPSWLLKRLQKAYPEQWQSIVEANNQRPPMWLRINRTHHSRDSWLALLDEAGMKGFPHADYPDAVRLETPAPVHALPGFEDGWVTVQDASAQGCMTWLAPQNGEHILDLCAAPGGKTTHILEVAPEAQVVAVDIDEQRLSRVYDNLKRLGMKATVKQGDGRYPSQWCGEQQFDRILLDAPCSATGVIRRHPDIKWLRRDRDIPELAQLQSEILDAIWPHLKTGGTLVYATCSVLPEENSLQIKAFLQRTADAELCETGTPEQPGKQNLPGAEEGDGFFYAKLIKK

RplE = RplE (E. coli K-12, UniProt P62399 1-179)
YijC = target: T2, YijC (E. coli K-12, UniProt P0ACU5 1-234)
T2 construct: YijC, E. coli K-12
T2 sequence (looked up): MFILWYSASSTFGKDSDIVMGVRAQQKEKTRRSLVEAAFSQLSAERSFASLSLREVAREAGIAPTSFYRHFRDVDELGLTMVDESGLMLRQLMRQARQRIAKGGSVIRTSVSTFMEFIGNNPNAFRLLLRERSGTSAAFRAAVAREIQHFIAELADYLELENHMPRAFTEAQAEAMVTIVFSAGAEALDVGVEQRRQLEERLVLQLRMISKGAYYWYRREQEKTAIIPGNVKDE

YefE = target: T3, YefE (E. coli K-12, UniProt P37747 1-367)
T3 construct: YefE, E. coli K-12
T3 sequence (looked up): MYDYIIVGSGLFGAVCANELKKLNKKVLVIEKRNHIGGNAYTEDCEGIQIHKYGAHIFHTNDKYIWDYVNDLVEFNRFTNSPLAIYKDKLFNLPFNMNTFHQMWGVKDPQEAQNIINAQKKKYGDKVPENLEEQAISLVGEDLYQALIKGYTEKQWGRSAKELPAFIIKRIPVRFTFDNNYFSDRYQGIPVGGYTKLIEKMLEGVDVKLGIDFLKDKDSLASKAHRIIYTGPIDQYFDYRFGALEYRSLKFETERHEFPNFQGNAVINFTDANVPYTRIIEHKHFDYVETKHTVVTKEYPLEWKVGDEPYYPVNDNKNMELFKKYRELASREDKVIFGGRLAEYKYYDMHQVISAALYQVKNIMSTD

CbpA = target: T4, CbpA (E. coli K-12, UniProt P36659 1-306)
T4 construct: CbpA, E. coli K-12
T4 sequence (looked up): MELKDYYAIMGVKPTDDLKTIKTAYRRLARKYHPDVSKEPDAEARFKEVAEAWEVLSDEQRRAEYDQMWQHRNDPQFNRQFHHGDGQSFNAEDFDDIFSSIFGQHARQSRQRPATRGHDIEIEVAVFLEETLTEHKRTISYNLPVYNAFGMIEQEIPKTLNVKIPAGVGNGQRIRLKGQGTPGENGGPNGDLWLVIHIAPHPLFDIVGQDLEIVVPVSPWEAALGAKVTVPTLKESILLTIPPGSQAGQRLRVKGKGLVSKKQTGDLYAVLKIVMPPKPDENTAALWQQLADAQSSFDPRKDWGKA

RfaZ = target: T5, RfaZ (E. coli K-12, UniProt P27241 1-283)
T5 construct: RfaZ, E. coli K-12
T5 sequence (looked up): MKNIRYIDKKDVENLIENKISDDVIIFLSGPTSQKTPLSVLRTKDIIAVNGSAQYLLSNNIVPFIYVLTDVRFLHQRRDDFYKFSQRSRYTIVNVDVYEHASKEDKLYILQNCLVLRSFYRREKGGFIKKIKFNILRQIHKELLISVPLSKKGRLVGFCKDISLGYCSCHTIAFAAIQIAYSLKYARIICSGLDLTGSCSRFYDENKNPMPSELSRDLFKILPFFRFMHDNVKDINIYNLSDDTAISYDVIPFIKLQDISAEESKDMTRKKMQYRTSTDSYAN

Measured: binding result

B1: N-terminal biotinylated Lactoferricin B (peptide, UniProt P24627 36-60, looked up)
peptide: Biotin-FKCRRWQWRMKKLGAPSITCVRRAF
modifications: ends and bridges not checked
notes: lactoferricin B (LfcinB), cationic antimicrobial peptide of 25 amino acids; also called biotinylated LfcinB; biotin-labeled LfcinB; source: bought: Kelowna Inc
binds: RplN | Sun | RplE | YijC | YefE | CbpA | RfaZ
